# Source: paper PMC5836831, “Candidate SNP markers of reproductive potential are predicted by a significant change in the affinity of TATA-binding protein for human gene promoters”
# B1: TPI1 promoter ODN, minor (rs1800202 g) (dsDNA)
# DNA 1: CTCTATAGAAGTGGG
# DNA 2: CCCACTTCTATAGAG
# B2: TPI1 promoter ODN, ancestral (rs1800202 t) (dsDNA)
# DNA 1: CTCTATATAAGTGGG
# DNA 2: CCCACTTATATAGAG
# Tests used:
# [1] = target: T1, TATA-binding protein (TBP) (human, UniProt P20226 1-339); assay: EMSA; details: EMSA: 20 mM HEPES-KOH pH 7.6, 5 mM MgCl2, 70 mM KCl, 1 mM EDTA, 100 ug/ml BSA, 0.01% NP-40, 5% glycerol, 25 C, 0.3 nM TBP titrated with ODN; stopped-flow: …
# [2] = target: T1, TATA-binding protein (TBP); assay: stopped-flow fluorescence (FRET); EMSA: 20 mM HEPES-KOH pH 7.6, 5 mM MgCl2, 70 mM KCl, 1 mM EDTA, 100 ug/ml BSA, 0.01% NP-40, 5% glycerol, 25 C, 0.3 nM TBP titrated with ODN; stopped-flow: 0.1 uM ODN, 0.1-1.0 uM TBP, buffer not stated; details: protein: recombinant; label: 5'-TAMRA and 5'-FAM; blunt
# T1 sequence (P20226 whole entry): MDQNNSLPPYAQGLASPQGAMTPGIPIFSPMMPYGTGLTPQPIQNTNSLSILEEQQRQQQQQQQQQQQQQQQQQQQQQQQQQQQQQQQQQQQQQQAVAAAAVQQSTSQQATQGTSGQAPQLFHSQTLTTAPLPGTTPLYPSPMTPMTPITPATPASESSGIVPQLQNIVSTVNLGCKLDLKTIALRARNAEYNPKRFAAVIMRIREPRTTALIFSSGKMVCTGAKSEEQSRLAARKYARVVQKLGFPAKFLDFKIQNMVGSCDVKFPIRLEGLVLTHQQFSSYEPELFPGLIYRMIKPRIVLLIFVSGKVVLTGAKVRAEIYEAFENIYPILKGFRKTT
molecule,measurement,setting,value
"HBB promoter ODN, minor (rs33981098)",Kd,[1],90 nM
"HBB promoter ODN, ancestral (rs33981098 a)",Kd,[1],44 nM
B1,Kd,[2],6 nM
B2,Kd,[2],1 nM
